Experimental data taken from PMC9668737, “Herpes simplex virus 1 protein pUL21 alters ceramide metabolism by activating the interorganelle transport protein CERT” (The Journal of Biological Chemistry, 2022).
Where “and” joins values, the source holds several entries; their conditions need not be identical. Identical values can stand only once.

T1: H6-miniCERTL (human, UniProt Q9Y5P4-1 20-624, residues 20–131 plus 351–624 (MR residues 132 to 350 excluded))
T1 construct: human CERTL, UniProt Q9Y5P4-1, residues 20-131 plus 351-624 (PH and STARTL domains joined by a retained 23 amino acid stretch of the middle region); Cloned into pOPTH; Monomer by SEC-MALS; source: E. coli T7 Express lysY/Iq, purified (Ni-NTA, SEC); not shown: MAH6, N-terminal, kept
T1 sequence (looked up): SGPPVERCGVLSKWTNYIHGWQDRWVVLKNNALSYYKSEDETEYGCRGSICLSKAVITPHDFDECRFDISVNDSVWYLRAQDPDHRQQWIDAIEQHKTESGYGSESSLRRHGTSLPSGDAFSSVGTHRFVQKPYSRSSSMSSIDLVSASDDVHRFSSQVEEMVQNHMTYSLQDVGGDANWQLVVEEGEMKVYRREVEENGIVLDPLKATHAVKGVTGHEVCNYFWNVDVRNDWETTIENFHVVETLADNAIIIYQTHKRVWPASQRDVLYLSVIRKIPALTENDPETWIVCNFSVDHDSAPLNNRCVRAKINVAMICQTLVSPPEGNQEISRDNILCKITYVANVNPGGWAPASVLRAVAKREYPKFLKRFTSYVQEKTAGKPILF

T2: pUL21-H6 (herpes simplex virus 1 (HSV-1), UniProt F8RG07 1-535)
T2 construct: HSV-1 pUL21, UniProt F8RG07; some paragraphs print H6-pUL21; also called H6-pUL21; WT pUL21; source: E. coli T7 Express lysY/Iq, purified (Ni-NTA, SEC); not shown: His6, C-terminal, kept
T2 sequence: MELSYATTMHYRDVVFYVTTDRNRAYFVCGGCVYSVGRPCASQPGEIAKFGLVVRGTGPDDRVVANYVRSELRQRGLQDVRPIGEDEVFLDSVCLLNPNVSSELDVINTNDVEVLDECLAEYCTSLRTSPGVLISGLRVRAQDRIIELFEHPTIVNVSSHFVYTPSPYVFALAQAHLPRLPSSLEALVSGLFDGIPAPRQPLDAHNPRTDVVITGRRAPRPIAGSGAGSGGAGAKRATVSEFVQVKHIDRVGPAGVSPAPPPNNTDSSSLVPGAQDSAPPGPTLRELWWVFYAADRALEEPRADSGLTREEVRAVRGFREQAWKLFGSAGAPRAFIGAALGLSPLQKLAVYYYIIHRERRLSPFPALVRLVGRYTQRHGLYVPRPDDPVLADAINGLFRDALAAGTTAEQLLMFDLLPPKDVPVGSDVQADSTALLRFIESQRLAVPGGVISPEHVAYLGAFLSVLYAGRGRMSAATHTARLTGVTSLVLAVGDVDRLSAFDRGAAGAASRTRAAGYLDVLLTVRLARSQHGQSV

T3: StrepII-CERTL^P (hyperphosphorylated human CERTL) (human, UniProt Q9Y5P4-1 1-624, hyperphosphorylated (CERTL^P); sites not given)
T3 construct: ceramide transport protein CERT, longer cytoplasmic isoform CERTL (with exon 11), human, UniProt Q9Y5P4-1; not shown: StrepII, N-terminal, kept
T3 sequence (looked up): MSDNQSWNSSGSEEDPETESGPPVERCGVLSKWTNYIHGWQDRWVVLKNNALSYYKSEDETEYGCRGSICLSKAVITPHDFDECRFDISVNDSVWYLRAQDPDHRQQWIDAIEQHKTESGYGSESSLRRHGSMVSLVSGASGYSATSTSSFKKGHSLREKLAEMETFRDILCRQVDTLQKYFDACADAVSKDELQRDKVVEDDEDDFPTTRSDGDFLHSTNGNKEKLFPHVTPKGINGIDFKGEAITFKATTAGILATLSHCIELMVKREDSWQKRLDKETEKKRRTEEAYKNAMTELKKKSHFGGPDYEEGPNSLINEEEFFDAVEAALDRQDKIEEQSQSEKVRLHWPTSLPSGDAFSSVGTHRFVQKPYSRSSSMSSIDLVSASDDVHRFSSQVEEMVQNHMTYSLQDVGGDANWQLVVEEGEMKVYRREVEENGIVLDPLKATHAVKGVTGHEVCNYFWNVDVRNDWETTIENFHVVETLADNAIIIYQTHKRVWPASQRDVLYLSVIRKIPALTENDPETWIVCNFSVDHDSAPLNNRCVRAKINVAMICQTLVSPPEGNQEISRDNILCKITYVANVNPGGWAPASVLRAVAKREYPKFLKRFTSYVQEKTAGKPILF

T4: StrepII-CERTL^S132A (constitutively hypophosphorylated human CERTL) (human, UniProt Q9Y5P4-1 1-624, S132A)
T4 construct: ceramide transport protein CERT, longer cytoplasmic isoform CERTL, human, UniProt Q9Y5P4-1, with S132A; source: Freestyle 293F cells, stably transfected, doxycycline-induced, purified (StrepTrap, SEC); not shown: StrepII, N-terminal, kept
T4 sequence (looked up): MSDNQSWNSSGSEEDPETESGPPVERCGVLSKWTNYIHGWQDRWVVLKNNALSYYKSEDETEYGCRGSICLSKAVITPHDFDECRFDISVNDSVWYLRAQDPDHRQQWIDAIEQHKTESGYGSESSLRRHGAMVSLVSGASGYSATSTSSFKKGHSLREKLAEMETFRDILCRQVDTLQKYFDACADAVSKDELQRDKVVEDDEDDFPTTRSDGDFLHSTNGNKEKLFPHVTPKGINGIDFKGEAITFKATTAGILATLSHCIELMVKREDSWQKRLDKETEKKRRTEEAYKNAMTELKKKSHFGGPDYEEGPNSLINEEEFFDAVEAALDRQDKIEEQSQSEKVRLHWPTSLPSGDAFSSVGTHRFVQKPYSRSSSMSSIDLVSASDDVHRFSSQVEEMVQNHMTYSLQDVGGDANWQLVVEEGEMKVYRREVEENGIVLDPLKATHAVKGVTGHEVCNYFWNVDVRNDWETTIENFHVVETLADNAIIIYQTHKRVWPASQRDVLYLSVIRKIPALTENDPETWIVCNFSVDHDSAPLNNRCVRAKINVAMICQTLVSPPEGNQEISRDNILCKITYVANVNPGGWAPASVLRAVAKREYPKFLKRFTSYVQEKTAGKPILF


What was measured:
[1] = biological target: CERTL (CERT, long isoform) (UniProt Q9Y5P4); experiment: SEC-MALS of self-association; details: reference: wild-type CERTL, hyperphosphorylated (CERTLP); sites S132
[2] = biological target: T1, H6-miniCERTL; experiment: ITC; 25 °C; 20 mM Tris pH 8.5, 500 mM NaCl, 0.5 mM TCEP; CERTL forms in the syringe titrated into pUL21 forms in the cell; one-site binding model; details: both partners purified
[3] = biological target: the molecule itself; experiment: SEC-MALS; Superose 6 increase 10/300 GL; 20 mM Tris pH 8.5, 500 mM NaCl, 0.5 mM TCEP; samples injected at 2 mg/ml
[4] = biological target: T2, pUL21-H6; experiment: ITC; 25 °C; 20 mM Tris pH 8.5, 500 mM NaCl, 0.5 mM TCEP; CERTL forms in the syringe titrated into pUL21 forms in the cell; one-site binding model; details: both partners purified
[5] = biological target: T3, StrepII-CERTL^P (hyperphosphorylated …); experiment: ITC; CERTL forms in the syringe titrated into pUL21 forms in the cell; 25 °C; 20 mM Tris pH 8.5, 500 mM NaCl, 0.5 mM TCEP; one-site binding model; single titrations; details: both partners purified
[6] = biological target: T4, StrepII-CERTL^S132A (constitutively …); experiment: as above; details: both partners purified

Row | Molecule | stoichiometry N [3] | dH [4] | stoichiometry N [4] | other results
1 | CERTL (CERT, long isoform) (from UniProt Q9Y5P4) CERTL S132A (hypophosphorylated) |  |  |  | other: observed mass (expected trimer 215.7) [1]: same; reference 184.3
2 | H6-pUL21C (domain or fragment, HSV-1 pUL21 C-terminal domain, amino acids 275-535, UniProt F8RG07; Cloned in pOPTH; Monomer by SEC-MALS and SAXS; also called C-terminal domain of pUL21; source: E. coli T7 Express lysY/Iq, purified (Ni-NTA, SEC); not shown: MAH6, N-terminal, kept) QDSAPPGPTLRELWWVFYAADRALEEPRADSGLTREEVRAVRGFREQAWKLFGSAGAPRAFIGAALGLSPLQKLAVYYYIIHRERRLSPFPALVRLVGRYTQRHGLYVPRPDDPVLADAINGLFRDALAAGTTAEQLLMFDLLPPKDVPVGSDVQADSTALLRFIESQRLAVPGGVISPEHVAYLGAFLSVLYAGRGRMSAATHTARLTGVTSLVLAVGDVDRLSAFDRGAAGAASRTRAAGYLDVLLTVRLARSQHGQSV |  |  |  | Kd [2]: 4320 nM
3 | StrepII-CERTL^P (hyperphosphorylated StrepII-tagged CERTL) (natural protein, human, UniProt Q9Y5P4-1 1-624, looked up, hyperphosphorylated (sites not given), human CERTL, UniProt Q9Y5P4-1, synthetic gene; Trimer by SEC-MALS (observed 184.3 kDa, expected 215.7 kDa); not shown: StrepII, N-terminal, kept) MSDNQSWNSSGSEEDPETESGPPVERCGVLSKWTNYIHGWQDRWVVLKNNALSYYKSEDETEYGCRGSICLSKAVITPHDFDECRFDISVNDSVWYLRAQDPDHRQQWIDAIEQHKTESGYGSESSLRRHGSMVSLVSGASGYSATSTSSFKKGHSLREKLAEMETFRDILCRQVDTLQKYFDACADAVSKDELQRDKVVEDDEDDFPTTRSDGDFLHSTNGNKEKLFPHVTPKGINGIDFKGEAITFKATTAGILATLSHCIELMVKREDSWQKRLDKETEKKRRTEEAYKNAMTELKKKSHFGGPDYEEGPNSLINEEEFFDAVEAALDRQDKIEEQSQSEKVRLHWPTSLPSGDAFSSVGTHRFVQKPYSRSSSMSSIDLVSASDDVHRFSSQVEEMVQNHMTYSLQDVGGDANWQLVVEEGEMKVYRREVEENGIVLDPLKATHAVKGVTGHEVCNYFWNVDVRNDWETTIENFHVVETLADNAIIIYQTHKRVWPASQRDVLYLSVIRKIPALTENDPETWIVCNFSVDHDSAPLNNRCVRAKINVAMICQTLVSPPEGNQEISRDNILCKITYVANVNPGGWAPASVLRAVAKREYPKFLKRFTSYVQEKTAGKPILF | ~3 | 3.89 kcal/mol | 0.74 | 
4 | StrepII-CERTL^S132A (natural protein, human, UniProt Q9Y5P4-1 1-624, looked up, hypophosphorylated, human CERTL, UniProt Q9Y5P4-1, synthetic gene, S132A; Trimer by SEC-MALS (observed 199.2 kDa); also called constitutively hypophosphorylated form of CERTL; source: Freestyle 293F, stably transfected, doxycycline-induced, purified (StrepTrap HP, Superose 6 SEC); not shown: StrepII, N-terminal, kept) MSDNQSWNSSGSEEDPETESGPPVERCGVLSKWTNYIHGWQDRWVVLKNNALSYYKSEDETEYGCRGSICLSKAVITPHDFDECRFDISVNDSVWYLRAQDPDHRQQWIDAIEQHKTESGYGSESSLRRHGAMVSLVSGASGYSATSTSSFKKGHSLREKLAEMETFRDILCRQVDTLQKYFDACADAVSKDELQRDKVVEDDEDDFPTTRSDGDFLHSTNGNKEKLFPHVTPKGINGIDFKGEAITFKATTAGILATLSHCIELMVKREDSWQKRLDKETEKKRRTEEAYKNAMTELKKKSHFGGPDYEEGPNSLINEEEFFDAVEAALDRQDKIEEQSQSEKVRLHWPTSLPSGDAFSSVGTHRFVQKPYSRSSSMSSIDLVSASDDVHRFSSQVEEMVQNHMTYSLQDVGGDANWQLVVEEGEMKVYRREVEENGIVLDPLKATHAVKGVTGHEVCNYFWNVDVRNDWETTIENFHVVETLADNAIIIYQTHKRVWPASQRDVLYLSVIRKIPALTENDPETWIVCNFSVDHDSAPLNNRCVRAKINVAMICQTLVSPPEGNQEISRDNILCKITYVANVNPGGWAPASVLRAVAKREYPKFLKRFTSYVQEKTAGKPILF | ~3 | 2.38 kcal/mol | 0.97 | 
5 | pUL21-H6 (HSV-1 pUL21) (natural protein, tegument protein pUL21 of herpes simplex virus 1, UniProt F8RG07; source: E. coli T7 Express lysY/Iq, purified (Ni-NTA, SEC); not shown: His6, C-terminal, kept) MELSYATTMHYRDVVFYVTTDRNRAYFVCGGCVYSVGRPCASQPGEIAKFGLVVRGTGPDDRVVANYVRSELRQRGLQDVRPIGEDEVFLDSVCLLNPNVSSELDVINTNDVEVLDECLAEYCTSLRTSPGVLISGLRVRAQDRIIELFEHPTIVNVSSHFVYTPSPYVFALAQAHLPRLPSSLEALVSGLFDGIPAPRQPLDAHNPRTDVVITGRRAPRPIAGSGAGSGGAGAKRATVSEFVQVKHIDRVGPAGVSPAPPPNNTDSSSLVPGAQDSAPPGPTLRELWWVFYAADRALEEPRADSGLTREEVRAVRGFREQAWKLFGSAGAPRAFIGAALGLSPLQKLAVYYYIIHRERRLSPFPALVRLVGRYTQRHGLYVPRPDDPVLADAINGLFRDALAAGTTAEQLLMFDLLPPKDVPVGSDVQADSTALLRFIESQRLAVPGGVISPEHVAYLGAFLSVLYAGRGRMSAATHTARLTGVTSLVLAVGDVDRLSAFDRGAAGAASRTRAAGYLDVLLTVRLARSQHGQSV |  |  |  | Kd [5]: 1080 nM and 554 nM and 684 nM; Kd [6]: 460 nM and 824 nM
